Assay results reported in article PMC12000384, “Competition for the nascent leading strand shapes the requirements for PCNA loading in the replisome” (The EMBO Journal, 2025).

Target: T1, CMG (Cdc45-MCM-GINS) helicase (S. cerevisiae, UniProt Q08032 1-650; P29469 1-868; P24279 1-971; P30665 1-933; P29496 1-775; P53091 …)
T1 construct: Cdc45, S. cerevisiae; Mcm2, S. cerevisiae; Mcm3, S. cerevisiae; Mcm4, S. cerevisiae; Mcm5, S. cerevisiae; Mcm6, S. cerevisiae; Mcm7, S. cerevisiae; GINS subunit, S. cerevisiae; 11-subunit helicase; The two strains express the same chains; in yVA94 endogenous Ctf4-2xStrep was depleted on Strep-Tactin resin; also called Ctf4-depleted CMG; wild-type CMG; source: S. cerevisiae, overexpressed, …
Assay: cryo-EM structure; replisome reconstituted on ice on forked DNA with 0.5 mM AMP-PNP from 150 nM CMG (Ctf4-depleted), Pol ε^exo-, Ctf18-RFC, Tof1-Csm3, Ctf4 and Mrc1 in 25 mM HEPES-NaOH pH 7.6, 150 mM NaOAc, 15 mM Mg(OAc)2, 0.5 mM TCEP; 10-30% glycerol gradient with glutaraldehyde and BS3 cross-linking
Conditions: both partners purified

binding result	Binder
binds	Tof1-Csm3 (complex, S. cerevisiae, Tof1, S. cerevisiae; Csm3, S. cerevisiae; source: purified as in Yeeles et al, 2017) chain 1: MSADLQQGTTNAADFSLTVLRARIALLATAIGGPDYTSQIDPPPYKLGDDCLACLKDLKRWFKLVDDQQKRWDVAMAVAEYRILTDDLLPILIDWENKCSLAAKLAKNNPDHEEFRNKAYYDKIALNCLQLLVLMTWPLIVTEQSSSNQITLYGELKKHQLVYKKTILSMESGKVLRAAIRLALDVIKIDRLSRTPRDNMVLKLVLNFFRNVIAIEPGEFTINTKKSMPKKGITSIDTLPPNVSMDDISLNTVISSFHKNKVFGFLLTLTSSLSKEFDQDFINIPLLEIMFYFTKDVNQELLFPRQFETGTHSKVVNKNESSSANNIVTSAGFELSKLLQKEHQMRKNVIKHTSARHSRFGGLLSIQTPDKTRLTVSGSQALVDEKIALQKLDDSKKWNKRIIKKHQSVAAEGLPNSLLNSQTGKAIFFTESNGKHFKEFINNFIDSGFNILLHSVTNYFTTEQDRMVTLEQVEYLLFFAWFVKYQLLRSKIDNSADIKQVSEALKEVTFILVSSLLRSAYDLKNWTVTHAGMIAFNELLNLVSRTKAAQEEDSTDIEFIVSRLFSDERIQLLSNLPKIGSKYSLQFMKSCIELTHSVLKVLEQYSDDKTLVIEGKSRRQKKFNISEGDITKLIEEENVDRDEALDILTSSLRSIEVNFQKVQANYMTEPVIETYINFLERFRELEDDSIKKVFSFFHRVFVQAKEQALLFRFDLIILLREMLSPDGLDRMSRSRKYVSQFSDYFLARLKKRLKKSPAWFVGLLFPPLHNSEVGFYQRYGEYNVLNNESMYAAPASQFKPIPDEEALPPSILLDMKYGVLVSTLLDDGKTELLDQLLKHITHTLDIFKSWLTVNVNAGKETVNPPNEYFTLTGVLNNDPIFKDKDYRALLLLIGYSIPRKINEPCFLPGTVEVSDLTVSCELVKKYLSTPFETPNGLPSSSYLLRVRSEKDSFSHNEQDGWEGDDDYDYNDPYIVPDDQILSKSDAAYFKDLDNNASDKLKGTKFSKGIARSKKKDKRKRRKGEAKTNLPMFGDQDDERPQTVRERHGVFSKEFISDSEDDEDLMNPIFFENETYMRWLLDKNNGQLTEDRYIQFAKFAAERMNNGGVVTGDYTSLFGGSIPSIESIRATESSSFAPDKSLISLASHVASEMSIFDVNNNNNNQLSDDDVNSESRNSLGSSQPSNSQNMFQSEVYSRKESTKRSLEASAADESDEDEEAIRLFGKKSRVVLSQGDSDD chain 2: MDQDFDSLLLGFNDSDSVQKDPTVPNGLDGSVVDPTIADPTAITARKRRPQVKLTAEKLLSDKGLPYVLKNAHKRIRISSKKNSYDNLSNIIQFYQLWAHELFPKAKFKDFMKICQTVGKTDPVLREYRVSLFRDEMGMSFDVGTRETGQDLERQSPMVEEHVTSAEERPIVADSFAQDKRNVNNVDYDNDEDDDIYHLSYRNRRGRVLDERGNNETVLNNVVPPKEDLDALLKTFRVQGPVGLEENEKKLLLGWLDAHRKMEKGSMTEEDVQLIQSLEEWEMNDIEGQHTHYDLLPGGDEFGVDQDELDAMKEMGF
binds	Ctf4 (natural protein, S. cerevisiae, UniProt Q01454 1-927, looked up, Ctf4, S. cerevisiae; source: purified as in Yeeles et al, 2015) MVSVIDKLVFDFGGKTLVSLAPDNNTLCVANKNGLTKILKTNNPEEEPETLDSSKLVSSIKCYSNSHFLMTTMQGDALRYNIDSSQEELLARFALPLRDCCVIHSGKMAVFGGDDLELILLELDDETHKKHAIKIDEQVSQISYNSQMNILAVSMINGKVQIFSLTSTIPNKVHELNDYIVANSYDDTHRDKILSNMMDDIDKDNDNDLSETADPDENNVADPEFCAANRICTRVAWHPKGLHFALPCADDTVKIFSIKGYSLQKTLSTNLSSTKAHFIDLQFDPLRGTYIAAVDLNNKLTVWNWETSEIHYTREFKRKITNIAWKIQADSKTLDLVLGTWSGSIAIVQNLAESVVSNIPDQSVAESSTKHGLFVDSESDLENLEGNDDINKSDKLFSDITQEANAEDVFTQTHDGPSGLSEKRKYNFEDEEDFIDDDDGAGYISGKKPHNEHSYSRVHKTHSFPISLANTGKFRYMPFSPAGTPFGFTDRRYLTMNEVGYVSTVKNSEQYSITVSFFDVGRFREYHFEDLFGYDLCFLNEKGTLFGQSKTGQIQYRPHDSIHSNWTKIIPLQAGERITSVAATPVRVIVGTSLGYFRSFNQFGVPFAVEKTSPIVALTAQNYRVFSVHYSQFHGLSYSLSELGTSSKRYYKRECPLPMSLPNINSDMKKDANLDYYNFNPMGIKSLFFSSYGDPCIFGSDNTLLLLSKWRSPEESKWLPILDSNMEIWKMSGGKETTDIHVWPLALAYDTLNCILVKGKHIWPEFPLPLPSEMEIRMPVFVKSKLLEENKAILNKKNEIGADTEAEEGEEDKEIQIPVSMAAEEEYLRSKVLSELLTDTLENDGEMYGNENEVLAALNGAYDKALLRLFASACSDQNVEKALSLAHELKQDRALTAAVKISERAELPSLVKKINNIREARYEQQLK
